One molecule from publication PMC9209446, “Structural basis of template strand deoxyuridine promoter recognition by a viral RNA polymerase” can be followed below.

The target in this series is AR9 nvRNAP promoter-specificity subunit gp226 (sigma-like);AR9 nvRNAP betaN subunit gp105;AR9 nvRNAP betaC … (Bacillus phage AR9 (Bacillus subtilis …, UniProt A0A172JIC8;A0A172JI16;A0A172JHZ2;A0A172JIH0;A0A172JI62 …, ||||)). Kind of series: X-ray crystallography; crystals from 150 mM MIB pH 5, 150 mM LiCl, 13% PEG 1500; 4 mM MgCl2 in DNA annealing buffer; Complex for structures: 34 uM holoenzyme + 50 uM DNA, 30 min at room temperature; DNA annealed in 20 mM Bis-tris propane pH 6.8, 100 mM NaCl, 4 mM MgCl2, 0.5 mM EDTA; crystallized at 19 C. The note with it: protein: recombinant;recombinant;recombinant;recombinant;recombinant; tags: ;;;;; copies: 1;1;1;1;1; 14 bp duplex with 18 nt 3' overhang on strand 1.

B1: P077 promoter forked oligonucleotide, template [-16;+16] all U / non-template [+3;+16] (dsDNA)
DNA 1: CTCCAATATGTGATATAATATAUUGUUUATTG
DNA 2: ATCACATATTGGAG
modifications: deoxyuridine at the printed U positions of strand 1; both strands DNA
For the molecule B1, the binding result is given as “binds”.
